From paper PMC7017188

Molecular target: His-tagged eukaryotic initiation factor 6 (eIF6), full length recombinant (UniProt P56537)
Test: AlphaScreen or HTRF; competition: serial dilution of non-biotinylated 60S against the optimised assay (eIF6 75 nM, 60S-Bio 0.5 nM); PBS pH 7.4, 5 mM MgCl2, 0.2% BSA, 0.02% Tween-20; room temperature; normalised between 100% displacement (no eIF6) and 0% displacement

IC50: 0.28 nM
Substance: non-biotinylated 60S ribosomal subunit (complex)
